We go through ten molecules from patent US20260125472A1 (HEFEI TG IMMUNOPHARMA, published 2026).

Numbering of substitutions follows the chain as printed.

B1: Cross312 (antibody, human IgG1, kappa, V domains shown)
VH: EVQLLESGGGLVQPGGSLKLSCAASGFTFNTYAMNWVRQAPGKGLEWVARIRSKYNNYATYYADSVKDRFTISRDDSKNTAYLQMNNLKTEDTAVYYCVRHGNFGNSYHSWFAYWGQGTLVTVSS
VL: ELVVTQEPSLTVSPGGTVTLTCRSSTGAVTTSNYANWVQQKPGQAPRGLIGGTNKRAPGTPARFSGSLLGGKAALTLSGVQPEDEAEYYCALWYSNLWVFGGGTKLTVLR
B2: Cross318 (antibody, human IgG1, kappa, V domains shown)
VH: B1 VH with H109V, Y114M
VL: B1 VL
B3: Cross316 (antibody, human IgG1, kappa, V domains shown)
VH: B1 VH with H109V, A113L
VL: B1 VL
B4: Cross313 (antibody, human IgG1, kappa, V domains shown)
VH: B1 VH with H109Q
VL: B1 VL
B5: Cross311 (antibody, human IgG1, kappa, V domains shown)
VH: B1 VH with Y108E, H109V
VL: B1 VL
B6: Cross314 (antibody, human IgG1, kappa, V domains shown)
VH: B1 VH with H109S
VL: B1 VL
B7: Cross312×PDL1 (bispecific antibody, human IgG1, kappa, L234A L235A)
scFv: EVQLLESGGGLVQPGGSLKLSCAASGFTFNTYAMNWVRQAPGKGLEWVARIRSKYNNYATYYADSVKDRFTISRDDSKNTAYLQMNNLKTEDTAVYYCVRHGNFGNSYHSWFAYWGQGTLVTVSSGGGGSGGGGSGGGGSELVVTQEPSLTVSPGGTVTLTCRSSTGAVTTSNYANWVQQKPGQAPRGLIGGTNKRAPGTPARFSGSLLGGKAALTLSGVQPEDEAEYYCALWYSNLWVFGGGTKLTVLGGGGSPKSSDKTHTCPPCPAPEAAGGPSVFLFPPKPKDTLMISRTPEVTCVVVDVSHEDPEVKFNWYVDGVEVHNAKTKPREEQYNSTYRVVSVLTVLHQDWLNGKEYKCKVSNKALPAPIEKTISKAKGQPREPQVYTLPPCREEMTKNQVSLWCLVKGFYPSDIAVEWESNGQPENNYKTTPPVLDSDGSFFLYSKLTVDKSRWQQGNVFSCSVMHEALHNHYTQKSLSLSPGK
heavy: QVQLVQSGAEVKKPGASVKVSCKASGYSFTGYYMHWVRQAPGQGLEWIGRINPYNGATTYSQNFKDRATMTVDTSISTAYMELSRLRSDDTAVYYCVPTGMGYFLMDYWGQGTLVTVSSASTKGPSVFPLAPSSKSTSGGTAALGCLVKDYFPEPVTVSWNSGALTSGVHTFPAVLQSSGLYSLSSVVTVPSSSLGTQTYICNVNHKPSNTKVDKKVEPKSCDKTHTCPPCPAPEAAGGPSVFLFPPKPKDTLMISRTPEVTCVVVDVSHEDPEVKFNWYVDGVEVHNAKTKPREEQYNSTYRVVSVLTVLHQDWLNGKEYKCKVSNKALPAPIEKTISKAKGQPREPQVCTLPPSREEMTKNQVSLSCAVKGFYPSDIAVEWESNGQPENNYKTTPPVLDSDGSFFLVSKLTVDKSRWQQGNVFSCSVMHEALHNHYTQKSLSLSPGK
light: DIQLTQSPSFLSASVGDRVTITCKASQDVGSAVVWYQQKPGKAPKLLIYWASTRHTGVPSRFSGSGSGTEFTLTISSLQPEDFATYFCQQFTSYPTFGQGTKLEIKRTVAAPSVFIFPPSDEQLKSGTASVVCLLNNFYPREAKVQWKVDNALQSGNSQESVTEQDSKDSTYSLSSTLTLSKADYEKHKVYACEVTHQGLSSPVTKSFNRGEC
B8: Cross314×PDL1 (bispecific antibody, human IgG1, kappa, L234A L235A)
scFv: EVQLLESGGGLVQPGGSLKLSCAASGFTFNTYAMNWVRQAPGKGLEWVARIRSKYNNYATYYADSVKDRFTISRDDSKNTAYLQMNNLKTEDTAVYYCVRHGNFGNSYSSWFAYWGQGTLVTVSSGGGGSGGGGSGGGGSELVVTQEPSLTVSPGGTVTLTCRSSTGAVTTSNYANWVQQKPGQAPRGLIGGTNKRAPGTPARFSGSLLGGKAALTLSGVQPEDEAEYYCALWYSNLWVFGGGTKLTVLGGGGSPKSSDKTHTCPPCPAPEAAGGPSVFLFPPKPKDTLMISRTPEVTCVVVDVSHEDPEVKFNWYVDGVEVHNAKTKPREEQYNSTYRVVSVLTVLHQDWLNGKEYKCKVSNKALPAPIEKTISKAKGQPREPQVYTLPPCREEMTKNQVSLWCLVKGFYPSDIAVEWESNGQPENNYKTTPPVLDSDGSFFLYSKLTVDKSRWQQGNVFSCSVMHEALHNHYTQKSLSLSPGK
heavy: B7 heavy
light: B7 light
B9: Cross303 (antibody, human IgG1, kappa, V domains shown)
VH: B1 VH with N103M, H109V
VL: B1 VL
B10: Cross307 (antibody, human IgG1, kappa, V domains shown)
VH: B1 VH with S107E, H109V
VL: B1 VL

T4 sequence (P07766 23-207 limits assumed): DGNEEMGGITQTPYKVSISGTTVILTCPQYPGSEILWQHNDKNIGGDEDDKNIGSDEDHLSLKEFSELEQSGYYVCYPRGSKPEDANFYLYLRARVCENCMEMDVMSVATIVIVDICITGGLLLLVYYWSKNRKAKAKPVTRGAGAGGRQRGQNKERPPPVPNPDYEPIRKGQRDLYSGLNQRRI
T1 sequence (chain, as listed by the source limits assumed, chain 1 of 2): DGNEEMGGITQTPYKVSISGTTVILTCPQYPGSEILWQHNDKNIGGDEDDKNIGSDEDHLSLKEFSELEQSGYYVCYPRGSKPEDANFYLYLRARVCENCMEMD
T1 sequence (P04234 22-105 limits assumed, chain 2 of 2): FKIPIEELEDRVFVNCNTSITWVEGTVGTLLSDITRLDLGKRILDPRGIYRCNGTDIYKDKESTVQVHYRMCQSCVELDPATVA

One test concerns the target T1, CD3E&D protein (UniProt P04234 22-105).
T1 construct: Purchased from Acro; also called CD3 E&D antigens; CD3E&D antigen protein
The test can be described thus: ELISA, coated CD3E&D protein, OD450 [panel B]. On the procedure:
(§1) In this example, the binding properties of the parental antibody Cross3 and the CD3 affinity-reduced antibody (the production method and the amino acid sequences of the heavy and light chains were shown in Example 1) were detected by ELISA. The CD3E&D protein was coated onto a 96-well plate by the inventors, and the strength of the signal after the addition of the antibody was used to determine the binding properties of the antibody and CD3E&D.
(§2) CD3E&D protein (purchased from Acro) was diluted to 2 μg/ml with PBS buffer, added to a 96-well plate at a volume of 100 μL/well, and placed at 4° C. overnight. The PBS buffer in the 96-well plate was aspirated, and the plate was washed 6 times with PBST (pH 7.2 PBS containing 0.1% Tween 20) buffer. Then, 200 μL/well PBS/10% BSA was added and incubated at 37° C. for 2 h for blocking. The blocking solution was removed, and the plate was washed six times with PBST. Then, the to-be-tested antibodies serially diluted with PBST/0.05% BSA, Cross3, Cross303, Cross307, Cross308, Cross309, Cross310, Cross311, Cross312, Cross313, Cross314, Cross316, Cross317, Cross318, Cross323, Cross325, Cross326, and control IgG1 (purchased from Bio-Tech) were added at 100 μL/well, and incubated at 37° C. for 1 h. The reaction system was removed, and the plate was washed 6 times with PBST. Then, the cells were incubated at 37° C. for 1 h with HRP (horseradish peroxidase)-labeled anti-human secondary antibody (Fab specific) (purchased from Sigma) serially diluted with PBST/0.05% BSA at 100 μL/well. The plate was washed six times with PBST, TMB (tetramethylbenzidine) was added at 80 μL/well and incubated at room temperature for 3 min. 4 M sulfuric acid was added at 80 μL/well to terminate the reaction. The absorbance was read at 450 nm using a microplate reader.
Consider B1, for which the concentration for a half-maximal effect (EC50 (read off the curve)) was approximately 0.03 mg/L.
Same read-out and setting: as for B2, the figure is approximately 0.03 mg/L; as for B3, approximately 0.03 mg/L; as for B4, approximately 0.03 mg/L.
On the same count and under the same terms, as for B5, the figure is approximately 0.03 mg/L; as for B6, approximately 0.03 mg/L.

The next test deals with T2, PDL1 protein (UniProt Q9NZQ7 19-238).
T2 construct: Bought recombinant protein
T2 sequence (Q9NZQ7 19-238 limits assumed): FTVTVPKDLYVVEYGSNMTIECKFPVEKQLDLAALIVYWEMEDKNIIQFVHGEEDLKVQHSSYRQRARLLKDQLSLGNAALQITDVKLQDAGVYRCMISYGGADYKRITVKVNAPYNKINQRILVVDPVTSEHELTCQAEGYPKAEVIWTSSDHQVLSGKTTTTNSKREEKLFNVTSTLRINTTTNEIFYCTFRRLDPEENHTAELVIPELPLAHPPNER
The test can be described thus: ELISA, coated PDL1 protein, OD450 [panel A]. On the procedure: (3) PDL1 protein (purchased from Acro) was diluted to 2 μg/ml with PBS buffer, added to a 96-well plate at a volume of 100 μL/well, and placed at 4° C. overnight. The PBS buffer in the 96-well plate was aspirated, and the plate was washed 6 times with PBST (pH 7.2 PBS containing 0.10% Tween 20) buffer. Then, PBS/10% BSA was added at 200 μL/well and incubated at 37° C. for 2 h for blocking. The blocking solution was removed, and the plate was washed six times with PBST. Then, the to-be-tested bispecific antibodies serially diluted with PBST/0.05% BSA, Cross3×PDL1, Cross303×PDL1, Cross307×PDL1, Cross308×PDL1, Cross309×PDL1, Cross310×PDL1, Cross311×PDL1, Cross312×PDL1, Cross313×PDL1, Cross314×PDL1, Cross316×PDL1, Cross317×PDL1, Cross318×PDL1, Cross323×PDL1, Cross325×PDL1, Cross326×PDL1, and control IgG1LALA (purchased from Bio-Tech) were added at 100 μL/well, and incubated at 37° C. for 1 h. The reaction system was removed, and the plate was washed 6 times with PBST. Then, the cells were incubated at 37° C. for 1 h with HRP (horseradish peroxidase)-labeled anti-human secondary antibody (Fab specific) (purchased from Sigma) serially diluted with PBST/0.05% BSA at 100 μL/well. After the plate was washed six times with PBST, TMB (tetramethylbenzidine) was added at 80 μL/well and incubated at room temperature for 3 min. 4 M sulfuric acid was added at 80 μL/well to terminate the reaction. The absorbance was read at 450 nm using a microplate reader.
As for B7, the concentration for a half-maximal effect (EC50 (read off the curve)) was approximately 0.2 mg/L.
On to B8, for which the “EC50 (read off the curve)” value was approximately 0.2 mg/L.

In another test the target is T3, PDL1 on A-375 melanoma cells, HCT-15 colorectal cancer cells and A549 lung cancer cells (UniProt Q9NZQ7 19-290, limits assumed).
T3 construct: whole, on cells
T3 sequence (Q9NZQ7 19-290 limits assumed): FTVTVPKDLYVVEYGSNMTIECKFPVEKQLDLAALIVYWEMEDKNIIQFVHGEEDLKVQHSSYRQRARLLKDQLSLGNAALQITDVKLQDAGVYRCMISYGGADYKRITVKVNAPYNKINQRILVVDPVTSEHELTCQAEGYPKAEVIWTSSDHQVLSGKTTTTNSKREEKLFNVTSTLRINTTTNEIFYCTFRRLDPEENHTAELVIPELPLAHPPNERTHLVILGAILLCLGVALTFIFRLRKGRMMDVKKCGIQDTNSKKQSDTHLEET
The test can be described thus: flow cytometry, A549 cells, MFI [panel B]. The procedure: (2) The tumor cells were diluted to 2×10⁶/ml with PBS and added to a 1.5 ml EP tube at a volume of 100 μl/tube, and goat serum was added thereto at 10 μl/tube. The cells were blocked at 4° C. for 30 min. The serially diluted bispecific antibodies, Cross3×Trop2, Cross303×Trop2, Cross307×Trop2, Cross308×Trop2, Cross309×Trop2, Cross310×Trop2, Cross311×Trop2, Cross312×Trop2, Cross313×Trop2, Cross314×Trop2, Cross316×Trop2, Cross317×Trop2, Cross318×Trop2, Cross323×Trop2, Cross325×Trop2, Cross326×Trop2, and Cross3×PDL1, Cross303×PDL1, Cross307×PDL1, Cross308×PDL1, Cross309×PDL1, Cross310×PDL1, Cross311×PDL1, Cross312×PDL1, Cross313×PDL1, Cross314×PDL1, Cross316×PDL1, Cross317×PDL1, Cross318×PDL1, Cross323×PDL1, Cross325×PDL1, Cross326×PDL1, and control hIgG1LALA (purchased from Bio-Tech) were added and incubated at 4° C. for 30 min. 1 ml of PBS was added to the EP tube, followed by centrifugation at 3500 rpm for 5 min at 4° C. The supernatant was discarded, and the cells were washed again with PBS. After centrifugation, the supernatant was completely discarded, and the cells were resuspended with PBS at 100 μl/tube. Alexa-647-labeled goat anti-human IgG secondary antibody (purchased from Jackson lab) was added at 1 μl/tube and incubated at 4° C. in the dark for 30 min. The cells were washed twice with PBS, and the supernatant was completely discarded after centrifugation. The cells were resuspended with PBS at 200 μl/tube and assay was performed using the flow cytometry.
With B7, the “EC50 (read off the curve)” value is approximately 2 mg/L.
For the molecule B8, the concentration for a half-maximal effect (EC50 (read off the curve)) is approximately 1 mg/L.

The next test concerns the target T4, CD3 on CD8 T cells (Homo sapiens (Human), UniProt P07766 23-207).
T4 construct: Native CD3 complex on CD8 T cells among PBMCs; also called T cells (PBMCs gated with anti-human CD8 antibody)
The test can be described thus: flow cytometry, CD8 T cells in PBMCs, binding ratio % [panel A]. On the procedure:
PBMCs were diluted with PBS to 2×10⁶/mL and added to a 1.5 ml EP tube at a volume of 100 μL/tube, 10 μL/tube of goat serum was added thereto and incubated at 4° C. for 30 min for blocking. […] 1 mL of PBS was added to the EP tube, followed by centrifugation at 3500 rpm for 5 min at 4° C. The supernatant was discarded, and the cells were washed again with PBS. After centrifugation, the supernatant was discarded, and the cells were resuspended with 100 μl/tube PBS. 1 μl/tube Alexa-647-labeled goat anti-human secondary antibody (purchased from Jackson lab) and 0.5 μl/tube PerCP-Cy5.5-labeled anti-human CD8 antibody were added and incubated at 4° C. in the dark for 30 min. The cells were washed twice with PBS, and the supernatant was discarded after centrifugation. The cells were resuspended with […] of PBS and assayed using the flow cytometry.
As to B1, the half-maximal effective concentration (EC50 (read off the curve)) is approximately 0.3 mg/L.
In the case of B3, the 50% effective concentration (EC50 (read off the curve)) was approximately 0.3 mg/L.
For the molecule B4, the half-maximal effective concentration (EC50 (read off the curve)) is approximately 0.3 mg/L.
In the case of B5, the “EC50 (read off the curve)” value was approximately 0.3 mg/L.
With B6, the “EC50 (read off the curve)” value was approximately 0.4 mg/L.

The target in another test is T1, CD3E&D protein. As to the kind of experiment: ELISA, coated CD3E&D protein, OD450 [panel A]. The procedure: as §1, §2
On to B9, for which the “EC50 (read off the curve)” value was approximately 0.03 mg/L.
Same read-out and setting: as for B10, the figure is approximately 0.03 mg/L.

The target in a further test is T1, CD3E&D protein. As to the kind of experiment: SPR (Biacore 8K), antibody on CM5 chip, CD3 E&D antigen as analyte. On the set-up: Fold change: reference not given here. On the procedure:
In a Biacore 8K (Cytiva) system, the antibody was diluted to 10 μg/mL in HBS-EP running buffer and coupled to a CM5 chip (Cytiva) at a flow rate of 10 μL/min.
In turn, B9 displayed a Fold change of 12.7, a dissociation constant Kd of 2.09 nM, a koff of 0.0991 s⁻¹ and an on-rate constant (kon) of 4.75e+07 M⁻¹ s⁻¹.
On the same counts, the results for B1 are 21.2, 3.5 nM, 0.0107 s⁻¹ and 3.05e+06 M⁻¹ s⁻¹.
On to B2, for which the Fold change was determined as 20.1, binding was characterised by a dissociation constant (Kd) of 3.32 nM, the koff was 0.0056 s⁻¹ and the kon came out at 1.69e+06 M⁻¹ s⁻¹.
B10 displayed a Fold change of 21, a Kd of 3.47 nM, a koff of 0.00473 s⁻¹ and an on-rate constant (kon) of 1.36e+06 M⁻¹ s⁻¹.
Taken in the same sequence, the figures for B3 were 20.8, 3.43 nM, 0.00249 s⁻¹ and 728000 M⁻¹ s⁻¹.
In turn, B4 gave a Fold change of 11.6, a dissociation constant (Kd) of 1.92 nM, a dissociation rate constant (koff) of 0.00567 s⁻¹ and a kon of 2.96e+06 M⁻¹ s⁻¹.
Take B5: the Fold change was 27.6, the Kd amounted to 4.55 nM, the koff stood at 0.00959 s⁻¹ and the association rate constant (kon) worked out at 2.11e+06 M⁻¹ s⁻¹.
Taken in the same sequence, the figures for B6 were 26.5, 4.37 nM, 0.00887 s⁻¹ and 2.03e+06 M⁻¹ s⁻¹.
